B1: Sticholysin II (StnII), wild type (natural protein, Stichodactyla helianthus, UniProt P07845 1-175, looked up)
chain: ALAGTIIAGASLTFQVLDKVLEELGKVSRKIAVGIDNESGGTWTALNAYFRSGTTDVILPEFVPNTKALLYSGRKDTGPVATGAVAAFAYYMSSGNTLGVMFSVPFDYNWYSNWWDVKIYSGKRRADQGMYEDLYYGNPYRGDNGWHEKNLGYGLRMKGIMTSAGEAKMQIKISR
notes: Sticholysin II (StnII), actinoporin of the sea anemone Stichodactyla helianthus; also called StnII WT; StnII-WT; source: E. coli RB791, purified to homogeneity
B2: StnII-I6C/K67C^ox (oxidized double-Cys mutant of sticholysin II) (natural protein, Stichodactyla helianthus, UniProt P07845 1-175, looked up)
chain: ALAGTCIAGASLTFQVLDKVLEELGKVSRKIAVGIDNESGGTWTALNAYFRSGTTDVILPEFVPNTCALLYSGRKDTGPVATGAVAAFAYYMSSGNTLGVMFSVPFDYNWYSNWWDVKIYSGKRRADQGMYEDLYYGNPYRGDNGWHEKNLGYGLRMKGIMTSAGEAKMQIKISR
modifications: disulfide bridge between C6 and C67 (oxidized form)
notes: Sticholysin II (StnII) of Stichodactyla helianthus with I6C and K67C, made by site-directed mutagenesis; the disulfide prevents the deployment of the N-terminal alpha-helix; Used oxidized; also called StnII CC; source: E. coli RB791, purified to homogeneity
B3: Sticholysin I (StnI), wild type (natural protein, Stichodactyla helianthus, UniProt P81662 1-176, looked up)
chain: SELAGTIIDGASLTFEVLDKVLGELGKVSRKIAVGIDNESGGTWTALNAYFRSGTTDVILPEVVPNTKALLYSGRKSSGPVATGAVAAFAYYMSNGNTLGVMFSVPFDYNWYSNWWDVKIYPGKRRADQGMYEDMYYGNPYRGDNGWYQKNLGYGLRMKGIMTSAGEAKMQIKISR
notes: Sticholysin I (StnI), actinoporin of the sea anemone Stichodactyla helianthus; also called StnI WT; source: E. coli RB791, purified to homogeneity
B4: StnI-I7C/K68C^ox (oxidized double-Cys mutant of sticholysin I) (natural protein, Stichodactyla helianthus, UniProt P81662 1-176, looked up)
chain: SELAGTCIDGASLTFEVLDKVLGELGKVSRKIAVGIDNESGGTWTALNAYFRSGTTDVILPEVVPNTCALLYSGRKSSGPVATGAVAAFAYYMSNGNTLGVMFSVPFDYNWYSNWWDVKIYPGKRRADQGMYEDMYYGNPYRGDNGWYQKNLGYGLRMKGIMTSAGEAKMQIKISR
modifications: disulfide bridge between C7 and C68 (oxidized form)
notes: Sticholysin I (StnI) of Stichodactyla helianthus with I7C and K68C, made by site-directed mutagenesis; the disulfide holds the N-terminal alpha-helix on the beta-sandwich; Used oxidized; also called StnI CC; source: E. coli RB791, purified to homogeneity

This data set deals with the molecule itself. Kind of data set: cross-linking.
As to B1, the binding result is on record as “binds”.

For B2, the binding result is recorded as “binds”.

For the protein B3, the binding result is “binds”.

Consider B4, for which the binding result is recorded as “binds”.

The values above are taken from PMC9569322, “Determination of the boundary lipids of sticholysins using tryptophan quenching” (Scientific Reports, 2022).
